Drawing on paper PMC2810336, “Mutational Analysis of Highly Conserved Residues in the Phage PhiC31 Integrase Reveals Key Amino Acids Necessary for the DNA Recombination”, this text covers binding signal for one molecule.

The data set concerns the target T1, phiC31 integrase Y393A (Streptomyces phage phiC31, UniProt Q38194 1-613, Y393A).
T1 sequence: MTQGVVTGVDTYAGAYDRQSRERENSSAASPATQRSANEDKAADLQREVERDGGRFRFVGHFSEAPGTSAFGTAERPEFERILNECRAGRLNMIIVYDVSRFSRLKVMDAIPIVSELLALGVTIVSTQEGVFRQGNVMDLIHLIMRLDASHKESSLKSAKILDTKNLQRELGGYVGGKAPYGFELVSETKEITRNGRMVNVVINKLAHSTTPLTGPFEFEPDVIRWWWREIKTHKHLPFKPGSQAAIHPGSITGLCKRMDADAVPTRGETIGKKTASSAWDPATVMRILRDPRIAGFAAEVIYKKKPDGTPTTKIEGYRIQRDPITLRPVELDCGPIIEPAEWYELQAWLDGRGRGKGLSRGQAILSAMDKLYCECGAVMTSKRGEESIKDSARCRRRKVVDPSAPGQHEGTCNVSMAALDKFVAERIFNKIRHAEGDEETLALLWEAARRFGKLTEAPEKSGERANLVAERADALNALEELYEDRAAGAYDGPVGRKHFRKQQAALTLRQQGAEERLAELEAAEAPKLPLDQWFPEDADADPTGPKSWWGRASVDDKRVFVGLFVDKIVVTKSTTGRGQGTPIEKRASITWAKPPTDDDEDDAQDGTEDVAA
As to the kind of experiment: EMSA; 400 nM protein; 50 ng/ul Poly (competitor (so in the source)), 0.05% NP-40, 50 mM KCl, 5 mM MgCl2, 10 mM EDTA, 20 ul, 0.4 ng (16 fmol) probe; 30 min at room temperature (Methods) or 30 C; pH not stated; synapsis 2 h at 30 C. The settings on record: protein: recombinant; tags: C-terminal His; chain copies: 2; label: biotin, double-strand end-labeled; blunt.

B1: attB 41 bp (dsDNA)
DNA 1: CGGGTGCCAGGGCGTGCCCTTGGGCTCCCCGGGCGCGTACT
DNA 2: AGTACGCGCCCGGGGAGCCCAAGGGCACGCCCTGGCACCCG
Take B1: the binding signal was 0 % of WT.
